The source of these data is patent US12338291B2, “Humanized antibody molecules to CD138 and uses thereof” (VISTERRA, INC., priority 2019, dated 2025).

The nature of data set [1]: Differential scanning fluorescence (DSF) thermal stability. To be noted: PBS pH 7.4, 25-95 °C, first thermal transition. In kind it is physicochemical. An excerpt:
Thermal stability represents an important property of antibodies and is used as a predictive surrogate of pharmaceutical drug stability in humans based on a relative stability profile as characterized by differential thermal melting profiles. Several methods exist for evaluation of product stability based on thermal melting. These include, for example, circular dichroism (CD), differential scanning calorimetry (DSC), and differential scanning fluorescence (DSF), among others. In this example, the thermal stabilities of select humanized anti-CD138 antibodies were evaluated by DSF. DSF was used to monitor the conformational stability of a protein as it was exposed to increasing thermal stress. The dye, SYPRO Orange®, fluoresces in a hydrophobic environment, such as hydrophobic core residues that are exposed during thermally triggered protein unfolding, or denaturation. In brief, SYPRO® Orange Dye (Sigma Chemical) was diluted 1:500 in phosphate buffered saline (PBS), pH 7.4, without addition of any detergents. Antibodies were likewise diluted in PBS to a target concentration of 0.5 mg/mL. 15 μl of diluted antibody and fluorescent dye were added 1:1 (v/v) into a 96 well microtiter plate and thoroughly mixed by repeat pipetting. Thermal scans were carried out using a real-time quantitative PCR (qPCR) thermal cycler with fluorescence detection capabilities. Scans were initiated at 25° C. with incremental increase in well temperature of 1° C. ramp/minute from 25° C. to 95° C. The mid-point (Tm) between native state and the first unfolding event was reported as the transition temperature or melt temperature (TM). TMs were then calculated based on transformation of the data using the first derivative of the fluorescence signal versus time. (dfluoresence/dtime) (FIG. 7).

Data set [2] in a line: Antibody production titers in Chinese hamster ovary cells. To be noted: CHO transient transfection, after Protein A purification. An excerpt:
The yields represent antibody amounts following purification from cell culture media by Protein A affinity chromatography, carried out under identical transfection conditions and culture scale. Differential pre-purification titers based on quantification using Protein-A biosensors (bio-layer interferometry) of antibody in culture media was also noted likewise indicating differential expression levels (antibody titers).

The test system of a further data set is MM1.S (Luc) cells. Description: MM.1S Luc xenograft multiple myeloma model in C.B-17 SCID mice, dose escalation (Example 7). The class given is in vivo.

B1: mAb 2810: parental mouse-human chimeric anti-CD138 antibody; VH SEQ ID NO: 296, VL SEQ ID NO: 292 (antibody, V domains shown)
VH: QVQLHQPGTSLVKPGASVKLSCKASGYSFSSYYMHWVKQRPGQGLEWIGTIHPSDSTTNYNQKFKGKATLTVDKSSRTAYMQLNSLTFEDSAVYYCANFVYWGQGTSVTVSS
VL: DIVITQDELSNPVTSGDSVSISCRSSKSLLYKDGKTYLNWFLQRPGQSPQLLIYVVSTRASGVSDRFSGSGSGTDFTLEISRVKAEDVGVYYCQQLVEYPYTFGGGTKLEIK
B1 returned a TM1 in data set [1] of 61.9 °C. This molecule also showed an Expression in data set [2] of 30.2 mg/L. Also, the “Median % T/C (whole body BLI)” value in the data set with MM1.S (Luc) cells (day 35, vs vehicle control) was 13.1%. For the same molecule, the “Tumor growth delay (time to median BLI of 1.0×10^9 p/s) relative to vehicle control” value in the data set on MM1.S (Luc) cells (i.p. twice weekly, mAb 4320 4, 8, 16 mg/kg, mAb 2810 4 mg/kg) is 6.6 days.
